In this experiment the target is T1, DEAD box helicase p68 S551F (mp68) peptide on H-2Kb (mouse).
T1 peptide: SNFVFAGI
Kind of experiment: killing.

The results in this text go back to paper PMC4891260 (2015).

B1: 1D9 TCR (TCR)
alpha TRAV1 TRAJ30 CDR3: CAVRSDTNAYKVIF
beta TRBV19 TRBJ2-7 CDR3: CASSKRLSSYEQYF
B1: the binding result is “recognises”.
